Assay results reported in patent publication US20180127476A1 (Janssen / Centocor, published 2018).
Numbered stars: 1 amine (or outer) side, 2 acyl side, 3 side chain; on linkers, the order of the positions; unused ones are H or OH. Bridge positions count the residues as written; N and C are the ends. Square brackets hold non-standard residues; d marks the D form. Side chains are listed from the residue outwards. * marks the point of attachment. m‑COPhCH2 = meta-toluoyl group on the Ile3 alpha-amine, its methyl linked by thioether to hCys31, O=C(c1cccc(C[*:3])c1)[*:2]; C18 diacid = O=C(O)CCCCCCCCCCCCCCCCC(=O)*; γGlu = O=C(O)[C@H](CCC(=O)[*:2])N[*:1]; Palmitoyl = CCCCCCCCCCCCCCCC(=O)*; hCys = N[C@@H](CCS)C(=O)O; AEEA = NCCOCCOCC(=O)O

T1: human NPY2R Gi-protein coupled receptor (human, UniProt P49146 1-381)
T1 sequence (looked up): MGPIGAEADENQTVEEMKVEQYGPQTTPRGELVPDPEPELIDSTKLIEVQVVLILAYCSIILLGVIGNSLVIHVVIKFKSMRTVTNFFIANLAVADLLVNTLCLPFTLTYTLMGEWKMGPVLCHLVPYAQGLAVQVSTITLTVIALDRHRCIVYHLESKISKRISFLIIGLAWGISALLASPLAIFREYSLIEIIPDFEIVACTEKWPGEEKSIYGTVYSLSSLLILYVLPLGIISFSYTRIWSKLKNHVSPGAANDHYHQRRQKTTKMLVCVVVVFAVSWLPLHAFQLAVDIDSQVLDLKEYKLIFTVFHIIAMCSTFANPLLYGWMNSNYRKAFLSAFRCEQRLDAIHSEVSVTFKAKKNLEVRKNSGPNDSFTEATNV

B1: Cyclic PYY Analog SEQ ID NO:22 (peptide)
peptide: {m‑COPhCH2}-IEPEAPGEDASPEELNRYYASLRAYLNK([γGlu-Palmitoyl])[hCys]TRQRY-NH2
modifications: bridge N-29; not fully specified (bridges)
B2: Cyclic PYY Analog SEQ ID NO:72 (peptide)
peptide: GISPEAPGEK([AEEA-AEEA-γGlu-C18 diacid])ASPEELNRYYASLRHYLNEVTRQRY-NH2
modifications: lactam N-29; also: psi-(R35,Y36) reduced amide bond
B3: Cyclic PYY Analog SEQ ID NO:21 (peptide)
peptide: {m‑COPhCH2}-IAPEAPGEDASPEELNRYYASLRAYLNK([γGlu-Palmitoyl])[hCys]TRQRY-NH2
modifications: bridge N-29; not fully specified (bridges)
B4: Cyclic PYY Analog SEQ ID NO:70 (peptide)
peptide: GISPEAPGEKASPEELNRYYASLRHYLNEVTRQRY-NH2
modifications: lactam N-29; also: psi-(R35,Y36) reduced amide bond

target: T1, human NPY2R Gi-protein coupled receptor; assay: cell-based or functional assay

Y2R EC50 (nM), inhibition of forskolin-induced cAMP (hY2 assay) [nM]	Binder
4.4	B1
1.75	B2
0.49	B3
0.02	B4
